Results reported in the supplement of paper PMC7877785.
± gives the uncertainty stated by the source.

Assay: self-splicing fitness, log relative to wild type (ln ratio); higher = more splicing; Tetrahymena group I intron in knt gene, E. coli kanamycin selection, DiMSum; sequences stand for … in CUCUCU…GGAGGGAAAAGUUAUCAGGCAUGCACCUGGUAGCUAGUCUUUAAACCAAUAGAUUGCAUCGGUUUAAAAGGCAAGACCGUCAAAUUGCGGGAAAGGGGUCAACAGCCGUUCAGUACCAAGUCUCAGGGGAAACUUUGAGAUGGCCUUGCAAAGGGUAUGGUAAUAAGCUGACGGACAUGGUCCUAACCACGCAGCCAAGUCCUAAGUCAACAGAUCUUCUGUUGAUAUGGAUGCAGUUCACAGACUAAAUGUCGGUCGGGGAAGAUGUAUUCUUCUCAUAAGAUAUAGUCGGACCUCUCCUUAAUGGGAGCUAGCGGAUGAAGUGAUGCAACACUGGAGCCGCUGGGAACUAAUUUGUAUGCGAAAGUAUAUUGAUUAGUUUUGGAGUACUCGUGGUCG
Procedure, shortened: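 Fitness was computed with DiMSum as the error-weighted combination of replicate fold changes, kanamycin versus none, each normalised to wild type. The library randomised all eight intron nucleotides of the P1ex region, with the intron placed in the knt kanamycin-resistance gene on pET-22b(+) in E. coli BL21(DE3). Six replicate transformations were grown overnight at 37°C or 30°C on LB agar with or without 25 μg/mL kanamycin, plus 100 μg/mL carbenicillin, 50 μM IPTG and 0.2% rhamnose. Pooled colonies were amplicon-sequenced on an Illumina HiSeq 2500.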

Row | Sequence | self-splicing fitness (ln) (30 °C) | self-splicing fitness (ln) (37 °C)
1 | UUAAAGCAAUAUUACGCCAA | 0.638 ± 0.29 | -0.283 ± 0.39
2 | ACCAAGCAAUAUUACGGUCG | -3.81 ± 0.22 | -2.56 ± 0.15
3 | CGUAAGCAAUAUUACGGGGA | -3.42 ± 0.22 | -1.73 ± 0.14
4 | GCAGAGCAAUAUUACGAGAU | -2.04 ± 0.29 | -2.15 ± 0.39
5 | GGGUAGCAAUAUUACGGUUG | -2.88 ± 0.14 | -0.949 ± 0.17
6 | UUCCAGCAAUAUUACGGUAA | -0.236 ± 0.087 | -0.0663 ± 0.086
7 | CGCAAGCAAUAUUACGCGGC | -3.05 ± 0.28 | -2.81 ± 0.38
8 | AGCAAGCAAUAUUACGAAGC | -3.28 ± 0.31 | –
9 | UUUGAGCAAUAUUACGUUCG | -4.2 ± 0.42 | -1.18 ± 0.19
10 | UGCGAGCAAUAUUACGGGCG | -1.59 ± 0.061 | -0.628 ± 0.086
11 | AGCUAGCAAUAUUACGGGGC | -3.25 ± 0.19 | -2.5 ± 0.21
12 | UACAAGCAAUAUUACGAGAC | -3.27 ± 0.43 | -1.43 ± 0.23
13 | ACCUAGCAAUAUUACGUCCG | -2.21 ± 0.14 | -0.377 ± 0.19
14 | CGAUAGCAAUAUUACGUUAG | -0.734 ± 0.084 | -0.52 ± 0.093
15 | CGGAAGCAAUAUUACGUUCC | -2.32 ± 0.48 | –
16 | GGCUAGCAAUAUUACGAGCA | -0.589 ± 0.081 | -0.213 ± 0.12
17 | CGGAAGCAAUAUUACGAUGC | – | -2.78 ± 0.36
18 | ACAGAGCAAUAUUACGCUGA | -3.27 ± 0.19 | -1.47 ± 0.16
19 | AUACAGCAAUAUUACGGUUU | -0.703 ± 0.048 | 0.226 ± 0.059
20 | UUCAAGCAAUAUUACGUAGC | -4.06 ± 0.26 | -2.3 ± 0.25
21 | AGCAAGCAAUAUUACGACCU | 0.278 ± 0.082 | 0.39 ± 0.11
22 | UCUUAGCAAUAUUACGUCAA | -2.43 ± 0.25 | -2.6 ± 0.44
23 | AGGAAGCAAUAUUACGGUGA | -2.15 ± 0.09 | -1.23 ± 0.088
24 | AAAGAGCAAUAUUACGAGUA | -3.87 ± 0.46 | -2.58 ± 0.28
25 | GCCCAGCAAUAUUACGACUC | -0.305 ± 0.059 | 0.916 ± 0.087
26 | GAGCAGCAAUAUUACGUACA | -1.06 ± 0.22 | -0.116 ± 0.17

Row | Sequence | self-splicing fitness (ln) (30 °C) | self-splicing fitness (ln) (37 °C)
27 | GACUAGCAAUAUUACGUGCA | -0.898 ± 0.059 | -0.504 ± 0.068
28 | GGGCAGCAAUAUUACGCAAA | -1.39 ± 0.099 | -0.884 ± 0.11
29 | UUCUAGCAAUAUUACGUGAA | -0.339 ± 0.066 | -0.148 ± 0.082
30 | GUGCAGCAAUAUUACGACUC | -0.543 ± 0.13 | 0.542 ± 0.19
31 | AUGCAGCAAUAUUACGGUCG | -1.41 ± 0.11 | -0.972 ± 0.14
32 | CUAGAGCAAUAUUACGUAUU | -3.42 ± 0.17 | -3.03 ± 0.26
33 | UGAGAGCAAUAUUACGCCGC | -3.41 ± 0.23 | -2.5 ± 0.31
34 | AUGGAGCAAUAUUACGAUAC | – | -1.71 ± 0.48
35 | GCAGAGCAAUAUUACGCGCA | -2.97 ± 0.24 | -1.61 ± 0.17
36 | UGACAGCAAUAUUACGGCCG | -0.739 ± 0.14 | 0.186 ± 0.19
37 | CAGCAGCAAUAUUACGCCCU | -1.89 ± 0.1 | 0.0797 ± 0.13
38 | ACUCAGCAAUAUUACGAAAU | -1.11 ± 0.091 | 0.0403 ± 0.099
39 | AUAGAGCAAUAUUACGUUAU | -0.975 ± 0.089 | -0.177 ± 0.11
40 | CCAGAGCAAUAUUACGUCGG | -4.42 ± 0.17 | -2.2 ± 0.13
41 | GAUAAGCAAUAUUACGGACA | -1.39 ± 0.09 | -0.559 ± 0.088
42 | UGCUAGCAAUAUUACGAUCU | -0.537 ± 0.11 | -0.24 ± 0.1
43 | CCCGAGCAAUAUUACGACCA | – | -1.35 ± 0.31
44 | UACCAGCAAUAUUACGACAG | -1.2 ± 0.056 | -0.278 ± 0.076
45 | AGCGAGCAAUAUUACGGAGA | -2.52 ± 0.26 | -2.14 ± 0.3
46 | UCUGAGCAAUAUUACGAGCA | – | -2.23 ± 0.36
47 | AGCUAGCAAUAUUACGGGUC | -2.59 ± 0.17 | -1.7 ± 0.15
48 | UUACAGCAAUAUUACGUCGG | -1.24 ± 0.08 | -0.125 ± 0.087
49 | GCCGAGCAAUAUUACGAUCU | – | -0.908 ± 0.4
50 | UCAGAGCAAUAUUACGAUUA | -1.18 ± 0.28 | –
51 | AUGGAGCAAUAUUACGGCCG | -1.27 ± 0.11 | -0.481 ± 0.19
